Starred links: 1 amine or outer side, 2 acyl side, 3 side chain; linkers in the order of their positions; H or OH if unused. Positions of bridges follow the written chain, without caps; N, C: chain ends. Non-standard residues stand in square brackets, D forms with d. Primed or numbered codes have the meaning given here. *: point of attachment. PyrS2″ = (S)-3-amino-1-((pent-4-en-1-yloxy)carbonyl)pyrrolidine-3-carboxylic acid (stapling residue), C=CCCCOC(=O)N1CC[C@@](N[*:1])(C(=O)[*:2])C1; B5(4) = 2,2-bis(4-pentenyl)glycine = 2-amino-2-(pent-4-en-1-yl)hept-6-enoic acid (stitching residue), C=CCCCC(CCCC=C)(N[*:1])C(=O)[*:2]; TfeGA = (S)-2-amino-3-((carboxymethyl)(2,2,2-trifluoroethyl)amino)propanoic acid, O=C([C@H](CN(CC(=O)[*:3])CC(F)(F)F)N[*:1])[*:2]; PyrS2 = (S)-3-amino-1-((pent-4-en-1-yloxy)carbonyl)pyrrolidine-3-carboxylic acid, C=CCCCOC(=O)N1CC[C@@](N[*:1])(C(=O)[*:2])C1; B5(22) = 2-amino-2-(pent-4-en-1-yl)hept-6-enoic acid (two alkene side chains), C=CCCCC(CCCC=C)(N[*:1])C(=O)[*:2]; B5(3) = 2,2-bis(4-pentenyl)glycine (stitching residue), C=CCCCC(CCCC=C)(N[*:1])C(=O)[*:2]; Phe(2-Cl) = N[C@@H](Cc1ccccc1Cl)C(=O)O; Bta = N[C@@H](Cc1csc2ccccc12)C(=O)O; αAllylPro = C=CC[C@@]1(C(=O)O)CCCN1; tBuAla = CC(C)(C)C[C@H](N)C(=O)O; 3Thi = N[C@@H](Cc1ccsc1)C(=O)O; S8 = C=CCCCCCC[C@](C)(N)C(=O)O; Thr(ol) = C[C@@H](O)[C@H](N)CO; Leu(ol) = CC(C)C[C@H](N)CO; Alaol = C[C@@H](CO)N*; Ms = CS(=O)(=O)*
T1: beta-catenin in DLD1 TCF/LEF reporter cells (UniProt P35222 1-781)
T1 sequence (looked up): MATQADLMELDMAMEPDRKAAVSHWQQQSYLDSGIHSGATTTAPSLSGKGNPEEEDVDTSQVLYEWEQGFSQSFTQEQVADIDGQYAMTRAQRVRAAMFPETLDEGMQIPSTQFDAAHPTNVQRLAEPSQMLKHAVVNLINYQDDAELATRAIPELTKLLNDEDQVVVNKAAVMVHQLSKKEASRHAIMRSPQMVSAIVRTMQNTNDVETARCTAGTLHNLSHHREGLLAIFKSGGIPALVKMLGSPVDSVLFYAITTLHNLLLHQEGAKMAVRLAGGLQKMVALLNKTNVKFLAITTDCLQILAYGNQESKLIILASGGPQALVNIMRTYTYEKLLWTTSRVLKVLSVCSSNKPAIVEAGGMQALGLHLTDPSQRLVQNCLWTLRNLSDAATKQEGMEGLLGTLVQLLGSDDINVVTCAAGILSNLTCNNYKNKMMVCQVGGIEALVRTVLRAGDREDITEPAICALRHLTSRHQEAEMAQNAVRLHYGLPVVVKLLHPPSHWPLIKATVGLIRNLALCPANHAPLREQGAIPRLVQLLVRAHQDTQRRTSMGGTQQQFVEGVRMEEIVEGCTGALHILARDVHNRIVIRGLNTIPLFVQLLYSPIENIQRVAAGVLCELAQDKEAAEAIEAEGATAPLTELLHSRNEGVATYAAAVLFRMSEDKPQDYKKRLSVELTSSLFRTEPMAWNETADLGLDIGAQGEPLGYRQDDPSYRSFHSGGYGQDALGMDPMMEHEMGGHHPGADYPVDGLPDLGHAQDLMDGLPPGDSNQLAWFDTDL

T2: B-cat-Halo (UniProt P35222 1-781)
T2 sequence (looked up): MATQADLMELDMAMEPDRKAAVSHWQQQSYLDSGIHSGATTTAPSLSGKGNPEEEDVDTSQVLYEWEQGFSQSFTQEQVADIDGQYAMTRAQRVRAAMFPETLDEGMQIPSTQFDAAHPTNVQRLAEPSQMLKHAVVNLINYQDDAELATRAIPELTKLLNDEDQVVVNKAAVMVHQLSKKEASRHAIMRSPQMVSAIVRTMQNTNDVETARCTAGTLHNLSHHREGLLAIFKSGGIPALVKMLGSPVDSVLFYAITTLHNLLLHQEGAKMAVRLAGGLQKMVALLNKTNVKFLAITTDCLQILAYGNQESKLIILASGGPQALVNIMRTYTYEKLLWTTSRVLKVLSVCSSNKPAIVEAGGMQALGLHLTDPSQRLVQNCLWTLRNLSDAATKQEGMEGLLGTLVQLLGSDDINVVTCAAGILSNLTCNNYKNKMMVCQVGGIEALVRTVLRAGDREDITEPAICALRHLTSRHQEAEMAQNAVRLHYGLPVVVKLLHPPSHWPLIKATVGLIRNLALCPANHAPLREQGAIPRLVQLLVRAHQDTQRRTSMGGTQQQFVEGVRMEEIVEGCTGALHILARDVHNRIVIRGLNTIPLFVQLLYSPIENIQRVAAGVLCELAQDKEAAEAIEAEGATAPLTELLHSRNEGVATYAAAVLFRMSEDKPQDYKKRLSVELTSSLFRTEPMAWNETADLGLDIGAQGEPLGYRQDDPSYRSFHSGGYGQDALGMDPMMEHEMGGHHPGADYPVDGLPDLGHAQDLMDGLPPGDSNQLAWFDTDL

T3: B-cat-Halo (beta-catenin HaloTag NanoBRET construct expressed in HEK293 cells) (UniProt P35222 1-781, HaloTag NanoBRET 618 Ligand bound to the HaloTag)
T3 sequence (looked up): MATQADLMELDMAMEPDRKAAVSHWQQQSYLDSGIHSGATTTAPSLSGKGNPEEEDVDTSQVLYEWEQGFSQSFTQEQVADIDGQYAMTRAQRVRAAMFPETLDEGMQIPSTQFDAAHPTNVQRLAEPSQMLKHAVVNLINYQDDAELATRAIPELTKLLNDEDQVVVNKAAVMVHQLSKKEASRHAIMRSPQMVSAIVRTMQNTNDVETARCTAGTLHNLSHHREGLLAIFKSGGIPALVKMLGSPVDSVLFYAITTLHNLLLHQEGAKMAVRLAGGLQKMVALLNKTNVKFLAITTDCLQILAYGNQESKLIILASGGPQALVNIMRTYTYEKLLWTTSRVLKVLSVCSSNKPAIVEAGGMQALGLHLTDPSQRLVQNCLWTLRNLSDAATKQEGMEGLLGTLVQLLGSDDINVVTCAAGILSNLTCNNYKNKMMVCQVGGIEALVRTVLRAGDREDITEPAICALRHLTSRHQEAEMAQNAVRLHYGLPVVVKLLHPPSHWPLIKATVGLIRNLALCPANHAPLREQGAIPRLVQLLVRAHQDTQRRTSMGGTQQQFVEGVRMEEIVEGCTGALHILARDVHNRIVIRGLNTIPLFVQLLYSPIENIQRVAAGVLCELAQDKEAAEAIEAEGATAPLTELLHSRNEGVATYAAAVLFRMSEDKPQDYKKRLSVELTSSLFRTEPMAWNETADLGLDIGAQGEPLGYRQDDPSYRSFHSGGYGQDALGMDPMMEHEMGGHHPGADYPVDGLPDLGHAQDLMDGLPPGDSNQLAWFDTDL

T4: B-cat-Halo (beta-catenin HaloTag NanoBRET construct expressed in HEK293 cells) (UniProt P35222 1-781)
T4 sequence (looked up): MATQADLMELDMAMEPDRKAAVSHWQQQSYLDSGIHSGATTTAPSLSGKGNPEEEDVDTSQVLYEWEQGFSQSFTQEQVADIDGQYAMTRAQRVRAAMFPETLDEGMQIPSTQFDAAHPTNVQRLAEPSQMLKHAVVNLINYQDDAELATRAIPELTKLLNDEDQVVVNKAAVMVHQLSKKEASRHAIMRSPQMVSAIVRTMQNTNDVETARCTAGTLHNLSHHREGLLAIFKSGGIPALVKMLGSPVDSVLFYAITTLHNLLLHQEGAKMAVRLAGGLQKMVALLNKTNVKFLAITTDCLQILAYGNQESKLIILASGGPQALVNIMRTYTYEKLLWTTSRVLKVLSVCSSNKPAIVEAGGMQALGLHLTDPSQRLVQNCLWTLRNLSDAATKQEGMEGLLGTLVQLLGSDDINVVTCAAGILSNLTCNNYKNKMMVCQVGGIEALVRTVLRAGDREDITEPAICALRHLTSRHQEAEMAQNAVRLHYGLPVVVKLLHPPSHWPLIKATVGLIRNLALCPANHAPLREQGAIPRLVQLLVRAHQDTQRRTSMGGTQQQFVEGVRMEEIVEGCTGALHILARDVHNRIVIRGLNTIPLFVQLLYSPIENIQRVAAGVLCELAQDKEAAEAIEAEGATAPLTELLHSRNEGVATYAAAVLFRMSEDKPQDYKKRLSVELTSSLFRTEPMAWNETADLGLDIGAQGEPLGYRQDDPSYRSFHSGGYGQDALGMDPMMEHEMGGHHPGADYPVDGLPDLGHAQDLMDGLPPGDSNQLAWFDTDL

T5: full-length beta-Catenin (Uniprot ID P35222) (Homo sapiens (Human), UniProt P35222 1-781)
T5 construct: also called bCat; B-Catenin
T5 sequence: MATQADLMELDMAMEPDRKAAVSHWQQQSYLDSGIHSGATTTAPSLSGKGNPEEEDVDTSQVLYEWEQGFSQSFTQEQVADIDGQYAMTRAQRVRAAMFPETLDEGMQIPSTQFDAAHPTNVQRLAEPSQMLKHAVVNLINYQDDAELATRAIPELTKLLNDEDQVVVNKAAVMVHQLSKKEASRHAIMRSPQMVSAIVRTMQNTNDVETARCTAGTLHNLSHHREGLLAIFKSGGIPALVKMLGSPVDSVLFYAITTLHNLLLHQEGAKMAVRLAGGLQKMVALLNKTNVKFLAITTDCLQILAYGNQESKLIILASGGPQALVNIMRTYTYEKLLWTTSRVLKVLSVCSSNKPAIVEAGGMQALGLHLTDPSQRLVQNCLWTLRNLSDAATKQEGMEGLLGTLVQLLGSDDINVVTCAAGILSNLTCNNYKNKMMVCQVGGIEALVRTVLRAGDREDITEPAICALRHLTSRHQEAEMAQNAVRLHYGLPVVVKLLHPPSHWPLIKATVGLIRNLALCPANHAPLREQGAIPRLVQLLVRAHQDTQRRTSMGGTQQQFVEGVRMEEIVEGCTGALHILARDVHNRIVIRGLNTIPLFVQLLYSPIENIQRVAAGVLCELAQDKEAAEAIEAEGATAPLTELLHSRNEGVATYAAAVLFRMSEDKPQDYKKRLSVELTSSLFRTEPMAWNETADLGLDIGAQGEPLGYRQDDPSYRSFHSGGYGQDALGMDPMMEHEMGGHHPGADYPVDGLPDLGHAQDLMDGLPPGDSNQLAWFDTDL

T6: B-cat-Halo (beta-catenin HaloTag fusion expressed in HEK293 cells) (UniProt P35222 1-781)
T6 sequence (looked up): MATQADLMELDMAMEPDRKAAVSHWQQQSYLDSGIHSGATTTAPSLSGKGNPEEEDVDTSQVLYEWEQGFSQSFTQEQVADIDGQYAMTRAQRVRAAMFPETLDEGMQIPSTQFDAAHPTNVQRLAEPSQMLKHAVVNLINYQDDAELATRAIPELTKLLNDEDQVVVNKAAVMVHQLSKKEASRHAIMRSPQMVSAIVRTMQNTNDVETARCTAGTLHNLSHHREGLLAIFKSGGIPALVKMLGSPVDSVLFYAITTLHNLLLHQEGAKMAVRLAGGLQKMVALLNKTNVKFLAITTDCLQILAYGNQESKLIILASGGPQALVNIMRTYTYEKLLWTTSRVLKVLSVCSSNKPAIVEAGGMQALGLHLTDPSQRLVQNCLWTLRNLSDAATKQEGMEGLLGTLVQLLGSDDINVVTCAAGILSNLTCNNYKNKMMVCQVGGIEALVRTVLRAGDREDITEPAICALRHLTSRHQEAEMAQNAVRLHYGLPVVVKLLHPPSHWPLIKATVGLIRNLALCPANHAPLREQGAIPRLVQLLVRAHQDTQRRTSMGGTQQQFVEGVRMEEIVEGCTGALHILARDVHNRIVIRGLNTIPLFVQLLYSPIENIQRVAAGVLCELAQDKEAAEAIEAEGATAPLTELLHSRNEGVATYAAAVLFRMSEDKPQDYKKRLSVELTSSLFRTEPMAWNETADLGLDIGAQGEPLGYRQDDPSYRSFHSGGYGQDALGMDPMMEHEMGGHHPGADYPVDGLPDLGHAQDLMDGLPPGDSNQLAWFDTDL


Assays:
[1] = target: T1, beta-catenin in DLD1 TCF/LEF reporter …; test: cell-based or functional assay
B-cat-Halo = target: T2, B-cat-Halo; test: cell-based or functional assay
[2] = target: T3, B-cat-Halo (beta-catenin HaloTag …); test: cell-based or functional assay
[3] = target: T4, B-cat-Halo (beta-catenin HaloTag …); test: cell-based or functional assay
[4] = target: T5, full-length beta-Catenin (Uniprot ID …); test: fluorescence polarization competition; full-length beta-catenin with 5FAM-labeled TCF4 residues 10-53 probe as competitor
Procedure: The plate was incubated protected from light for 60 minutes at 20° C. prior to read. Reads were performed on a CLARIOstar plate reader (BMG Labtech) in duplicate, and data were fitted to a 1:1 binding model with hill slope using an in-house script. All provided concentrations are final concentrations.

[5] = target: T6, B-cat-Halo (beta-catenin HaloTag fusion …); test: cell-based or functional assay

Row | Binder | DLD1 reporter assay Abs IC50 [1] [µM] | NanoBRET Abs IC50 (B-cat-Halo) [µM] | further results
1 | Ac-[αAllylPro]D[tBuAla][B5(4)]D[TfeGA]AAFT[PyrS2″][Phe(2-Cl)][Bta]-Alaol (staple 1-4, 4-11) [I-1242] | 4.8 | > 20 | –
2 | Ac-[αAllylPro]D[tBuAla][B5(4)]D[TfeGA]AAFT[PyrS2″][Phe(2-Cl)][Bta]Q-NHEt (staple 1-4, 4-11) [I-1240] | 4.9 | 11.5 | –
3 | Ac-[αAllylPro]D[tBuAla][B5(22)]DDAAFN[PyrS2][3Thi][Bta]QK(PropynPEG2)-NH2 (staple 1-4, 4-11) [I-936] | – | – | NanoBRET Abs IC50 [2]: 22.2 µM
4 | Ac-[αAllylPro]DL[B5(4)]DEAAFN[S8]F[Bta]H-NH2 (staple 1-4, 4-11) [I-543] | – | – | NanoBRET Abs IC50 [3]: 17 µM; IC50 [4]: 0.032 µM
5 | Ms-[αAllylPro]D[tBuAla][B5(3)]DDAAFN[PyrS2″][3Thi][Bta]Q-NH2 (staple 1-4, 4-11) [MeSO2-PL3-Asp-Npg-B5-Asp-Asp-Ala-Ala-Phe-Asn-PyrS2-3Thi-BztA-Gln-NH2] | – | – | NanoBRET Abs IC50 [5]: > 20 µM
6 | Ac-[αAllylPro]D[tBuAla][B5(4)]DDAAFT[PyrS2″][Phe(2-Cl)][Bta][Leu(ol)] (staple 1-4, 4-11) [I-1247] | > 20 | > 20 | –
7 | Ac-[αAllylPro]D[tBuAla][B5(4)]DDAAFT[PyrS2″][Phe(2-Cl)][Bta][Thr(ol)] (staple 1-4, 4-11) [I-1245] | 7.3 | 12.2 | –
